We go through 15 sequences from the DeepSol protein solubility set.

This series in a line: soluble on expression in E. coli; label from the status in PepcDB or PDB records.
For “GMSHVSYAEPPAQGWDIHCHTVFSDGTETPRTLVEQARKLGLHGVAIADHDTTAGWDEATEASEEIGLPLLLGTEITAVDEDVSVHMLAFQYDPSNEHISSMFANTRAARLRRTKRMVERLSQDFPITWDDVLAQVKEGERTTIGRPHIADALVAAGVYETRSDAFADAVSAKSKYYIPTPSPSTHEVIAAVKGAGGVVVAAHAGDPQRNRRLLSDEQLDAMIADGLDGLEVWHRGNPPEQRERLLTIAARHDLLVTGGSDWHGKGKPNGLGENLTDDDTVREILCRGVDLIGRVGSSHAA”, the “soluble on expression in E. coli” value was “soluble”.
Turning to “MDNDKNSIIDIVGDGINYEKLKKVEKSLCQIDIITEFMNRSRHLQGKKVNGCIMRIDETKQLLFHVIIDGPVGSIYEGGTFFADINIQPYQNHSLIPRVCFHTFIFHPNLGKYGNWDMRGIQWERRSNLEVLYNFIVEGMRNVKYDIERRNLAQLEDMSQPNISRLAKEDWPKFERTAREFVMKMAGGTINGRKTIFAETKKRRRQDFLDEDIDVIGIS”, the “soluble on expression in E. coli” value was “not soluble”.
Consider “MTINASNSATKKDKPAKYTMIKQYICEHIESGEWPQNAKVPSENELTQQFDVSRMTARRALQELTEQGILVRSQGAGTFVATFKSQSSLLEIRNISDEISDRGHQHKAKQLLLNSTAVTDEIAILLNLKNNEDVFYSEILHYENDDAIQLEQRFVNVSLVPDYLLQNFTQITPHEYLSSVAPLTEATHEIEAILASDEICQQLDIQSTTPCLQVKRRTWSKQGVVSVAILTSPGDKYRLGSHLKF”, for which the “soluble on expression in E. coli” value was “not soluble”.
As for “MEKKAFFQQLDERTDIRYTDSGLKIFRLKFPRAHLRLCNVKIDFGSRDVCIRAESGDTLLPYGTAHFLEHLLFWHNGRNLYSDFFAHGALLNAFTTYTDTNFMFTSLPDRLRQTIPILLDALWNHSFDKKIVAQEKAVITSEIQTAHLNHQLSYHYQLISMLSPSSPAAVFPAGRIEDIEALDISDLQKAYKAAYQAHRMTLFLIGGSENTETLLPPHLQLEKRPDYHAERKIIPACPPVLSQKMMLGDEERMEDTWTGLQIGALPGQNDLLSIKLYWDIAARILFQLDSPFFQEIQQTYRLEIDRLSAETYIYEDGGFLILHSQGTHSSAYIDVASYYVTQKKEQVAAWLQYGKDSLTDAIIYDSDYVRKCFEWAAECDRCDCSFLDMYHIIQDMDAQVFLSLIDAMASSNKAIIHVSQKEAIRQ”, the entry is “not soluble”; as for “MVSTLKRDEALFELIALEEKRQREGLELIASENFVSKQVREAVGSVLTNKYAEGYPGARYYGGCEVIDRVESLAIERAKALFGAAWANVQPHSGSQANMAVYMALMEPGDTLMGMDLAAGGHLTHGSRVNFSGKLYKVVSYGVRPDTELIDLEEVRRLALEHRPKVIVAGASAYPRFWDFKAFREIADEVGAYLVVDMAHFAGLVAAGLHPNPLPYAHVVTSTTHKTLRGPRGGLILSNDPELGKRIDKLIFPGIQGGPLEHVIAGKAVAFFEALQPEFKEYSRLVVENAKRLAEELARRGYRIVTGGTDNHLFLVDLRPKGLTGKEAEERLDAVGITVNKNAIPFDPKPPRVTSGIRIGTPAITTRGFTPEEMPLVAELIDRALLEGPSEALREEVRRLALAHPMP”, “soluble”; as for “MSHSAKKALLPLLAVATLAGLAGCATETSTALPVQQVESVNRPYSGVRSPIAVGKFDNRSSYMRGIFSDGVDRLGGQAKTILITHLQQTNRFNVLDRDNMSEIQQEAAIKGQAQRLKGADYVVTGDVTEFGRKEVGDRQLFGILGRGKSQIAYAKVALNIVNISTSEVVYSTQGAGEYALSNREVIGFGGTASYDSTLNGKVLDLAMREAVNKLVNAVDSGAWKPQNQ”, “not soluble”.
Then “SLTQSLLMYMDGPEVIGSSLGSPMEMEDALSMKGTAVVPFRATQEKNVIQIEGYMPLDCMFCSQTFTHSEDLNKHVLMQHRPTLCEPAVLRVEAEYLSPLDKSQVRTEPPKEKNCKENEFSCEVCGQTFRVAFDVEIHMRTHKDSFTYGCNMCGRRFKEPWFLKNHMRTHNGKSGARSKLQQGLESSPATINEVVQVHAAESISSPYKICMVCGFLFPNKESLIEHRKVHTKKTAFGTSSAQTDSPQGGMPSSREDFLQLFNLRPKSHPETGKKPVRCIPQLDPFTTFQAWQLATKGKVAICQEVKESGQEGSTDNDDSSSEKELGETNKGSCAGLSQEKEKCKHSHGEAPSVDADPKLPSSKEKPTHCSECGKAFRTYHQLVLHSRVHKKDRRAGAESPTMSVDGRQPGTCSPDLAAPLDENGAVDRGEGGSEDGSEDGLPEGIHLDKNDDGGKIKHLTSSRECSYCGKFFRSNYYLNIHLRTHTGEKPYKCEFCEYAAAQKTSLRYHLERHHKEKQTDVAAEVKNDGKNQDTEDALLTADSAQTKNLKRFFDGAKDVTGSPPAKQLKEMPSVFQNVLGSAVLSPAHKDTQDFHKNAADDSADKVNKNPTPAYLDLLKKRSAVETQANNLICRTKADVTPPPDGSTTHNLEVSPKEKQTETAADCRYRPSVDCHEKPLNLSVGALHNCPAISLSKSLIPSITCPFCTFKTFYPEVLMMHQRLEHKYNPDVHKNCRNKSLLRSRRTGCPPALLGKDVPPLSSFCKPKPKSAFPAQSKSLPSAKGKQSPPGPG”, with “not soluble”; and “MSLSTLKRDHIKKNLRDTEYDVVIVGGGITGAGIALDASNRGMKVALVEMQDFAQGTSSRSTKLVHGGLRYLKQLQVGVVAETGKERAIVYENGPHVTTPEWMLLPMHKGGTFGKFSTSIGLAMYDRLAGVKKSERKKMLSKQETLNKEPLVKRDGLKGGGYYVEYRTDDARLTIEVMKKAAENGAEILNYTKSEHFTYDSNKKVNGIEVLDMIDGETYAIKAKKVINASGPWVDEVRSGDYARNNKQLRLTKGVHVVIDQSKFPLGQAVYFDTEKDGRMIFAIPREGKAYVGTTDTFYDNEKATPLTTQEDRDYLINAINYMFPTVNVKDEDIESTWAGIRPLILEKGKDPSEISRKDEVWEGESGLLTIAGGKLTGYRHMALEIVDLLAKRLKQEYGLKFESCATKNLKISGGDVGGSKNFEHFVEQKVDAAKGFGIDEDVARRLASKYGSNVDQLFNIAQTAPYHDSKLPLEIYVELVYSIQQEMVYKPTDFLVRRSGKLYFNIQDVLDYKNAVIDVMADMLNYSETQKEAYTEEVEVAIDEARTGNDQPATKALEHHHHHH”, with “soluble”; and “MICHQCPDRHDSLEEETMNAYSPPTLLQLARQKLLREEALAISALKDLPRELLPEMFEEAFTDECTKTLRAMIPMWPFPCLPVGTLIKNPNLETLKAVLEGLDILLAPKVRSSRCKLRVLNLRNEHHEFWRIWAGSHEDECLPQLTQKQPVENSPDCGVKKHLQVTTDFELTKGRLDESATYLLQWAEQRKDSIHLCCRKLQIQGLSKDAFIEIFKIIDANCVQELELSCIWEEELPFLNPYLRQMKNLLTLKLDDITEVTMDGDDLFDEKKRRKLISQLFSFYCLQNLYVDGTFAEGNMIECLRYLKKPLETLCLRYCFLSQTDLDYLPHCLNICKLKHLSLSYIYLFNLFLEPLGILLERVRDTLQTLELQLCGLTDRHFSVLLPALSQCSHLTKINFYENTISLPVLKQLSYHTANLSQLTQEQYPAPQECYDNMRGVETHRLGNICTELLDILRAKRQPERVAFATSRCIKCRGFLVYDLETQRCFFQH”, with “not soluble”.
As for “MNSPLDVKDLIDLGRDPVVVFNPPSIGTPDRIERYHAALEWLIGRERPFVLVTRADGDEASESHEDRKSRAVWFKNNLMALAQVCRGFVYVEQDEARRAAWQVRAEGMAKTFPVPMIIAGDMEAAITQALDLVKASRDPAPGGSPHA”, the “soluble on expression in E. coli” value was “not soluble”.
As for “MSSHENDTPLPVPYTSRLGQPLDAGQTLNVHGKINEGAQVAEINLLQGGGEIGPNTQVILHLKLNFKEKKVILNSYENGVWGKEERESLPFQAGQEFDLRIRVLDEGLEISADNKKIHEFKHRLPFQSIEYLSVRGDLSLNGIHWGGRFYKLPWETAFPAGFLEKGQRVHLYGIPKGDRWSLDLVARNQDILFHFNPRIKDKAVVRNSHRNGFWDTEEREGGFPFKKDVGFDLTIVNEEYSIQIFINRERFGTFQHRTQNPIGDYIGLRIDGEVEVTGIEFSH”, the entry is “soluble”; as for “GPGSMENKLLSAPQNTVNPIIEKKRVVSCGMCEVDTTKLLEELRKVKENLSEVIDECIFLENQCEMTEKRLKSELLDRDKRIADISSALMEMVKYTSLLERQVIASAFTTLGSAMKRAPAIDMCRNISLREVASAVRERGESSGSRSSAKRKTRNGALYSEAKMAEEKNAFLLSVDEACALVNGLLREKVNLAAKIGEVAFHVNNAIARGERTSPALPDASSENVDDLHQSILNLTKQLSACGNEGDEEKNLKQVPSQHTAETEEPRQPQGLIAEKEDNTSRPQSPSQTQPPAGLASLGPHILDISRSSLPAVSITTQKGEGECGDITTESLVKKLAAAEEKCMAVEKQSRREREELHAELAYLRNSSREEKEEYNTLIERLTVELEILVAENAVMRKRIKGRKHSRDKIE”, “not soluble”.
Consider “MGSDKIHHHHHHMKRILVSLYEKEKYLDILRELHEKGWEIWASSGTAKFLKSNGIEANDVSTITGFENLLGGLVKTLHPEIFAGILGPEPRWDVVFVDLYPPPDIDIGGVALLRAAAKNWKKVKPAFDMETLKLAIEIDDEETRKYLAGMTFAFTSVYDSIRANQFVEGISLAFKREDLQLRYGENPHEKAFVYGKPAFEILHEGKTISFNNILDAENAWFMAKNLPRMGAVVVKHQSPCGAAIGEDKVEIVKKAIEADDESSFGGILAVNFEMDEEVAKSLKKYLEVIVAPSFTQEAIEVLSKKKVRLLKPGDYASWAGKMAFGSLVLSERKYPEGNFELVVGEPLSEKELEDLEFAYRVVEGAKSNAVLIAKDGVTVGIGSGQPSRKRAAWIATVMAGEKAKGAVAASDAFFPFPDSLEILAQAGVKAVVAPLGSIRDEEVIEKARELGITFYKAPSRVFRH”, for which the “soluble on expression in E. coli” value is “soluble”.
Then “MAHHHHHHMPTNAAQALEKLVPGRLLQLADNGTPTIVTPLGNEGSLNALIHAYKGKGYLPYFTHAVKAAQRSLVNELRAAGVEVPNGAEASHLEGVCGVHCRDEASCSHIIPDEHITATLYGEDTDDTRMIVACDPIQTKLRDDCVECFPRVNKVSGWEELVVRVHLFYPNTVPCMSVQDRRARLVTQKQFVPKNARTLQGYHVFHYAKRGSSVRTPHCESMFPYTPKTTESKGFTRENRCTAITVESVFVRDPARQQRPFYAEDAGQARVYFSYLRVDAFVTDDELVEHFPLESMDVAAMPAFTDNRYVEKYHVLVRLYLLAHDQGWTATQPHGCPHPLGDRVGLPVLFRSCATEVIVPDACSHDSQLLLRQRLLPDVEMQVTRFCFRRIVSEVLRQRVVAAAADTPECCIPVVCYMPYSDRVPVFTDKQVGVLARLYPHLGIRRPTSRREWADLSRTLYQHCISLFDILAAVGVPLRDAHGAVIDTDAYVPYTADMADDYFLVIANRPLRDYTCVTNQRWLCEQLLLPDHRPPISARAFAAWVRYWNAMAQLKHELEKQVTLDTVSAHLGLRLPAGKTGQRAACLVNGLVTDAKGGLIFPKLGGRRFRDREHVGALLPGAPVLYSFWVDGKLQFTYVRMPMRFVRGLPLKQVNGQRPVQSVIAAGGAPANRGDGTQRGGGQVGEERRANVAIHA”, with “not soluble”; and “MGSDKIHHHHHHMTETERLALASLLYQLADDDFLYAYRGSEWLGLAPHIEEDVASSSIAQDSMGHAAMYYQLLEEIGEGKADALAHVRLAHERKNSVLVERVNGPGYYMENPEYDWAYAVVRNYCYTLAKKVRIDSLKKSSYTPLAALAVKVNMELYYHLLHWQTWFTQLYQSTETARQKMDAALERVLADFGDLFDYGEASELIDEMRLIEGQGILLDRWYQALTPVLVDLNVTLPEMKMTYNGRNGEHSPDLNDALSTLGEVYLLDQSAVW”, with “not soluble”.
